The target of assay [1] is T1, BCMA CAR encoded by circular RNA formed from DNA Template I.
T1 construct: also called Construct I
In words: flow cytometry, live T cells 24 h after electroporation with 50 ng circRNA per 0.1x10^6 T cells; first of two values. An excerpt:
(§1) Donor T cells were thawed and activated with anti-CD3/CD28 solutions. Three days after activation, the cells were washed. […] Circular RNAs were formed from DNA templates present in Table 28 and/or 30. The cells were given a commercially available soluble BCMA detection reagent containing R-phycoerythrin (PE) fluorophore (e.g., from AcroBiosystems, Delaware), anti-Whitlow PE detection reagent, or anti-G4S linker detection reagent (e.g., G4S-AF647).
A general note: Flow cytometry measures light scatter and fluorescence of single cells or particles in a stream.

In assay [2] the target is T2, BCMA-41BBζ CAR encoded by circular RNA formed from DNA Template A.
T2 construct: also called Construct A
The description is as above.
Excerpt: as §1

Assay [3] concerns the target T3, BCMA CAR encoded by circular RNA formed from DNA Template H.
T3 construct: also called Construct H
The assay is described as above.
Excerpt: as §1

Assay [4] has as its target T4, CD19-CD28ζ CAR encoded by circular RNA formed from DNA Template F.
T4 construct: also called Construct F
The description is as above.
Excerpt: as §1

For assay [5], the target named is T5, BCMA CAR encoded by circular RNA formed from DNA Template G.
T5 construct: also called Construct G
The assay is described as above.
Excerpt: as §1

The target in assay [6] is T6, BCMA CAR encoded by circular RNA formed from DNA Template J.
T6 construct: also called Construct J
Described as above.
Excerpt: as §1

Assay [7] has as its target T1, BCMA CAR encoded by circular RNA formed …. The experiment in a line: flow cytometry, live T cells 24 h after electroporation with 50 ng circRNA per 0.1x10^6 T cells; second of two values.
Excerpt: as §1

The target of assay [8] is T2, BCMA-41BBζ CAR encoded by circular RNA …. The assay is described as above.
Excerpt: as §1

The target in assay [9] is T3, BCMA CAR encoded by circular RNA formed …. Described as above.
Excerpt: as §1

Assay [10] addresses T4, CD19-CD28ζ CAR encoded by circular RNA …. Described as above.
Excerpt: as §1

Assay [11] addresses T5, BCMA CAR encoded by circular RNA formed …. The assay is described as above.
Excerpt: as §1

Assay [12] has as its target T6, BCMA CAR encoded by circular RNA formed …. The assay is described as above.
Excerpt: as §1

Where no end group is shown, it is not given here.

We go through 1 molecule from patent US20250376534A1 (ORNA THERAPEUTICS, published 2025).

T5 sequence (chain, as listed by the source limits assumed): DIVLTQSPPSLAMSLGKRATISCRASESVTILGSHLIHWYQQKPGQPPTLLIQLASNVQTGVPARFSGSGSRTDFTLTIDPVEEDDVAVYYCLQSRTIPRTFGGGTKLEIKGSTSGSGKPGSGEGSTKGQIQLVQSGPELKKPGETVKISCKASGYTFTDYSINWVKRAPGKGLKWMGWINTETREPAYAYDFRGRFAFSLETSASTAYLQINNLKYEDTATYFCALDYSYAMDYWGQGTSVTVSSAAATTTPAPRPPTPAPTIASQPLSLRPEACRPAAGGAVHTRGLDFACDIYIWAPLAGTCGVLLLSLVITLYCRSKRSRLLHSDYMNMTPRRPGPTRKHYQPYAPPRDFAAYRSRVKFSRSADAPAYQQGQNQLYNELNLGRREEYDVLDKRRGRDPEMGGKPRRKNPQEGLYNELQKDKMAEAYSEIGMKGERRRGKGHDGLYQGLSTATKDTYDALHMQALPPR
T3 sequence (chain, as listed by the source limits assumed): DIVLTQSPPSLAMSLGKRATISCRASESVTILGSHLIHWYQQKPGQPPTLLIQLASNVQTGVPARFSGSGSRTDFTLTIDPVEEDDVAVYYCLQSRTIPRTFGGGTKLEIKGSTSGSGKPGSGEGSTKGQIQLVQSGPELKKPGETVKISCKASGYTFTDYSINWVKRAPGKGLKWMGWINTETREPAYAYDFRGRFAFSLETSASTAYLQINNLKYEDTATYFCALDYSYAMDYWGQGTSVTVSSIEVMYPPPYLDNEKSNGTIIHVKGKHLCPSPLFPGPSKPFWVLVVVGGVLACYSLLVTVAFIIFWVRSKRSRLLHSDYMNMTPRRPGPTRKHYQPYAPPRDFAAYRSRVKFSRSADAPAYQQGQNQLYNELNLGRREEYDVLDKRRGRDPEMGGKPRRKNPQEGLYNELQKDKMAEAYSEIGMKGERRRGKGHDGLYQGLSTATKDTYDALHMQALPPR
T6 sequence (chain, as listed by the source limits assumed): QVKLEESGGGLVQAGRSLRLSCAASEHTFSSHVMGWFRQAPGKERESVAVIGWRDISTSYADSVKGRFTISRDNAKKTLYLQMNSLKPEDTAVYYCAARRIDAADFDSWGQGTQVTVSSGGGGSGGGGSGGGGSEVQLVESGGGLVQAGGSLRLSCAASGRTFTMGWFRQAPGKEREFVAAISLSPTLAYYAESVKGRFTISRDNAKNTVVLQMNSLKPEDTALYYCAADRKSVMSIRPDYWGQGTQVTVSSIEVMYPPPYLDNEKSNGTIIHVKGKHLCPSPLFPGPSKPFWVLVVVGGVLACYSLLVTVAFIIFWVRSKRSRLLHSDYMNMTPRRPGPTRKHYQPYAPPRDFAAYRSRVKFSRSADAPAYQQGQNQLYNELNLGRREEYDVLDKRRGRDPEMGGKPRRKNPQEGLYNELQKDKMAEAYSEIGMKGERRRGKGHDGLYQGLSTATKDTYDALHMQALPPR
T1 sequence (chain, as listed by the source limits assumed): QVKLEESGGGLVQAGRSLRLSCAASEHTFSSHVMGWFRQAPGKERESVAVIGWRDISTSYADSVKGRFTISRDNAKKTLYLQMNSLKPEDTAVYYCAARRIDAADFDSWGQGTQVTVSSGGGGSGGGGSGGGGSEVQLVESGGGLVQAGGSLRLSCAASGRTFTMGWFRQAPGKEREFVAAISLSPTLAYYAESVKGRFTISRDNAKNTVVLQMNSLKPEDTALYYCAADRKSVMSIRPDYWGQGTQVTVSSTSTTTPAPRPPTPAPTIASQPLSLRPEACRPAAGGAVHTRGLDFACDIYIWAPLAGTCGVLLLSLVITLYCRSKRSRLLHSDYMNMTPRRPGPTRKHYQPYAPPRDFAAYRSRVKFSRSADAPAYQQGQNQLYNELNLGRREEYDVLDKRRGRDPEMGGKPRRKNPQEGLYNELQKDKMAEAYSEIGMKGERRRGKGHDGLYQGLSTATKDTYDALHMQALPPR
T4 sequence (chain, as listed by the source limits assumed): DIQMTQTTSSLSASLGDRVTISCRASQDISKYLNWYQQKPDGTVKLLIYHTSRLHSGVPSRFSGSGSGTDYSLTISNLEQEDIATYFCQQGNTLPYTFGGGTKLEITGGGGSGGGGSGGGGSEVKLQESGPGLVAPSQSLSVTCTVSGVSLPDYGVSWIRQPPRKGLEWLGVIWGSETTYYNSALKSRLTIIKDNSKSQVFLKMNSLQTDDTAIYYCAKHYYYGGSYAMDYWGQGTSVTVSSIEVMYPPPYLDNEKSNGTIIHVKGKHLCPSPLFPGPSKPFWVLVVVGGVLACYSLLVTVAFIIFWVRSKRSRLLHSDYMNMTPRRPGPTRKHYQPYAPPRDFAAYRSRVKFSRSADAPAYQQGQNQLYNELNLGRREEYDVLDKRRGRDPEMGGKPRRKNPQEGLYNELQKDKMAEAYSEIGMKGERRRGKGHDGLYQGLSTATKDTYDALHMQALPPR
T2 sequence (chain, as listed by the source): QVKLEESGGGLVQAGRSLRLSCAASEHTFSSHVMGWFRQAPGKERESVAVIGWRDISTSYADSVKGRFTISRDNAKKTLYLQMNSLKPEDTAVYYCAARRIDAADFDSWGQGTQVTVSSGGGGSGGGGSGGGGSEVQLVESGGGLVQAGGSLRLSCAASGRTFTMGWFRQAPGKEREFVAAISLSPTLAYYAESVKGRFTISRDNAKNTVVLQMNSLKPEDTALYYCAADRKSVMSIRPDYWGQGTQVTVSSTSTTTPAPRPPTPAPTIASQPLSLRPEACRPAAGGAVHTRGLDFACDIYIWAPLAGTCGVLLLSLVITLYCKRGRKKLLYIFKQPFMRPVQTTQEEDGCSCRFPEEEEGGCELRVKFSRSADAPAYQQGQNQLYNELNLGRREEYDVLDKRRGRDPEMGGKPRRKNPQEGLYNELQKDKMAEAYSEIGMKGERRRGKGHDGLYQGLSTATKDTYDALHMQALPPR

B1: soluble BCMA detection reagent containing R-phycoerythrin (PE) fluorophore (receptor, UniProt Q02223 1-54, looked up)
chain: MLQMAGQCSQNEYFDSLLHACIPCQLRCSSNTPPLTCQRYCNASVTNSVKGTNA
modifications: cysteine pairing not given here; also: conjugated to R-phycoerythrin (PE) fluorophore, site not given here
notes: also called soluble BCMA-PE; sBCMA-PE
Consider B1, for which the gMFI in assay [1] came to 57400; in assay [2], 61500; in [3], 57800; in assay [4], 71.7; in assay [5] it was 18200; in assay [6], 84700. In addition, the gMFI in [7] is 58000; in [8], 66300; in assay [9], 59700; in assay [10], 81.5; in [11], 18900; in assay [12], 93400.
